The values that follow come from paper doi:10.1101/2023.11.19.566349.

Changes are numbered by the printed parent chain.

Experiment in all cases: EMSA
On the technique in general: In EMSA bound probe runs differently from free probe, usually more slowly.

The target in one data set is T1, Tric1 SAM Asp235Ala (Arabidopsis thaliana, UniProt Q9SCK3 191-261, D235A).
T1 sequence: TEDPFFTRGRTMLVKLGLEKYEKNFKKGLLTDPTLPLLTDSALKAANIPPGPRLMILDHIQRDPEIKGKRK

Data set [1] deals with T2, Tric1 SAM Asp235Ala:Gly241Glu (Arabidopsis thaliana, UniProt Q9SCK3 191-261, D235A;G241E).
T2 sequence: T1 sequence with G51E

In another data set the target is T3, Tric1 SAM Gly241Glu (Arabidopsis thaliana, UniProt Q9SCK3 191-261, G241E).
T3 sequence: T1 sequence with A45D, G51E

The next data set addresses T4, Tric1 SAM domain WT (Arabidopsis thaliana, UniProt Q9SCK3 191-261).
T4 sequence: T1 sequence with A45D

As for UCGCUUUGCAUGCGA (structured_RNA) [tRNAala T-arm], the binding result in the data set with Tric1 SAM Asp235Ala was “no binding”; in data set [1], “no binding”; with Tric1 SAM Gly241Glu, “no binding”; with Tric1 SAM domain WT, “binds”.
